The record followed here is patent publication US20230405146A1 (HARBOUR ANTIBODIES, published 2023).

Numbering of substitutions follows the chain as printed. Ends that are not written are not given here.

To fix the notation:
T1: CD34 peptide (region 191 aa-207aa of the extracellular domain of CD34) coupled to BSA (human, also: coupled to BSA, site not given here)
T1 construct: also called CD34 specific peptide
T1 peptide: LEQNKTSSCAEFKKDRG

B1: 4.5c5 (antibody, V domains shown)
VH: EMQLLESGGGLVQPGGSLRLSCAASGFTFGHYAMTWVRQVPGKGLDWVSAISGGGTFTHYADSVKGRFTTSRDNSKNTLYLQMSSLRAEDTALYYCAKDQGYDYSWYYFDYWGQGTLVTVSS
VL: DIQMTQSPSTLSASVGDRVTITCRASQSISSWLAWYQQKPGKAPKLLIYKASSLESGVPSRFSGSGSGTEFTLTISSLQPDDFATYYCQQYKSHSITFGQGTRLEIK
notes: Anti-CD34 hybridoma clone from H2L2 mice
B2: 4.5 e5 (antibody, V domains shown)
VH: B1 VH
VL: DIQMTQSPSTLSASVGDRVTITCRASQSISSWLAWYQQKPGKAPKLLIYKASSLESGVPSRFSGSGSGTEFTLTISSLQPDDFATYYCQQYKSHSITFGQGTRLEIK
notes: as for B1
B3: L.1c7 (antibody, V domains shown)
VH: B1 VH with Y32F, T35S, T56S, H59Y, Y60S, Y111F
VL: DIQMTQSPSTLSASVGDRVTITCRASQSISSWLAWYQQRPGKAPKLLIYKASSLESGVPSRFSGRGSGTEFTLTISSLQPDDFATYYCQQYKSHSITFGQGTRLEIK
notes: as for B1
B4: 2.4c10 (antibody, V domains shown)
VH: QVQLVESGGGVVQPGRSLRLSCAASGFTFSNYGMHWVRQAPDKGLEWVAVIWYDGSKKYYADSVKGRFTISRDDSKNTLYLQMNSLRAEDTAVYYCARWGELRYDAFDIWGQGTMVTVSS
VL: not shown
notes: as for B1
B5: 2.6f11 (antibody, V domains shown)
VH: B4 VH with N31S, D42G, A61T, D74N, Y94F, E101S, L102G, R103N, Y104F, A106S
VL: DIQMTQSPSTLSASVGDRVTITCRASQSISSWLAWYQQKPGKAPKLLISKASSLESGVPSRFSGSGSGTEFTLTISSLQPDDFATYYCQQYKNYWTFGQGTKVEIK
notes: as for B1
B6: 3.2E3 (antibody, V domains shown)
VH: QVQLVESGGGVVQPGRSLRLSCVASGFTLSLNGMHWVRQAPGKGLEWVAVIWYDGSNRYYVDSVKGRFTISRDNSKNTLYLQMNSLRAEDTAVYYCARESFLGTFDYWGQGTLVTVSS
VL: DIQLTQSPSFLSASVGDRVTITCRASQGISSYLAWYQQKPGKAPKLLIYAASTLQSGVPSRFSGSGSGTEFTLTISSLQPEDFATYYCQQLNSYPYTFGQGTKLEIK

One assay deals with T1, CD34 peptide (region 191 aa-207aa of …). The assay can be described thus: not stated: column headed Affinity, with no unit, method or antigen form printed; table of the CD34-peptide-positive monoclonals.
B1: the Affinity came to 1.3e-09.
Still for that read-out and setting: under B2 stands 8.2e-10; under B3, 3.9e-09.
Turning to B4, the Affinity came to 3e-08.
On to B5, for which the Affinity is 2.1e-09.

In the next assay the target is T2, human Gpr56 on cells (primary blood cells; 32D-Gpr56 cell line) (human, UniProt Q9Y653 26-693).
T2 construct: whole, on cells; In the nanoparticle assays the cells were gated or isolated by CD34, not by Gpr56
T2 sequence (Q9Y653 26-693): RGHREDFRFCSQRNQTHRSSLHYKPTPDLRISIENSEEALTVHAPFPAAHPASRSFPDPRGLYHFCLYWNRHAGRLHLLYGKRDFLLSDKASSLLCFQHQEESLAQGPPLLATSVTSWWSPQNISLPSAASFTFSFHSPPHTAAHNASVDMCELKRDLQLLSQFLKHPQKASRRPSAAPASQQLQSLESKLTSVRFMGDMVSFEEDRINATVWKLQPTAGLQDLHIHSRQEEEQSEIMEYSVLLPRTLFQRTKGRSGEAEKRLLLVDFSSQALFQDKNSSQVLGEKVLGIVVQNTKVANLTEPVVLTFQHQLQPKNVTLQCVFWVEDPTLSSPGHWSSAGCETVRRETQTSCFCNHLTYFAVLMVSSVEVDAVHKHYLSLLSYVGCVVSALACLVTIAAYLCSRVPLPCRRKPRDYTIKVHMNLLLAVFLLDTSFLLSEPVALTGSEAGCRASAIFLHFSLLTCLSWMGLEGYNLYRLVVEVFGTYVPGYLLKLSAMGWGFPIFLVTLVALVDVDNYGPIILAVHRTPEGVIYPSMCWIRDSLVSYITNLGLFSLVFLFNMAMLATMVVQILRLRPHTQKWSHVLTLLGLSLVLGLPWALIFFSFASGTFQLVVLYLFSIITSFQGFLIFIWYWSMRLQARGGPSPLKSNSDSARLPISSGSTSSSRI
Put plainly: flow cytometry, 32D-Gpr56 cells, α-rat AF647 secondary; the dashed histogram is taken as the control. On the technique in general: In flow cytometry, cells or beads pass a laser one at a time.
Turning to B6, the binding result is given as “no binding (tested: 10 µg/ml)”.
